Experiment [1] has as its target HEWL-Hel-1024 (hen) (UniProt P00698). Nature of the experiment: BLI, mAb on AHC biosensor, 100 nM antigen.
For experiment [2], the target named is Hen Egg White Lysozyme (HEWL), wild type (hen) (UniProt P00698). Nature of the experiment: BLI, mAb on AHC biosensor, 100 nM antigen. For orientation: BLI is a label-free optical method that tracks binding on a fibre tip over time.
For experiment [3], the target named is HEWL-Full12 (hen) (UniProt P00698). Kind of experiment: BLI, mAb on AHC biosensor, 100 nM antigen, footnote e bounds the value.
In experiment [4] the target is HEWL-Full24 (hen) (UniProt P00698). Described as above.
Experiment [5] addresses Hen Egg White Lysozyme (HEWL), wild type (hen) (UniProt P00698). Nature of the experiment: ELISA, HEWL derivative coated, antibody in tenfold dilutions, A450. A general note: An ELISA detects its analyte on a solid surface through an enzyme-linked reagent.
The target in experiment [6] is HEWL-Full12 (hen) (UniProt P00698). Nature of the experiment: BLI, mAb on AHC biosensor, 100 nM antigen, footnote c bounds the value.
Experiment [7] deals with HEWL-Hel-104 (hen) (UniProt P00698). The experiment is described as above.
In experiment [8] the target is HEWL-Hel-1024 (hen) (UniProt P00698). The experiment is described as above.
The target in experiment [9] is HEWL-Full24 (hen) (UniProt P00698). The description is as above.
The target in experiment [10] is HEWL-Hel-1012 (hen) (UniProt P00698). The experiment is described as above.
Experiment [11] concerns the target HEWL-Hel-102 (hen) (UniProt P00698). Described as above.
Experiment [12] concerns the target HEWL-Hel-104 (hen) (UniProt P00698). Nature of the experiment: BLI, mAb on AHC biosensor, 100 nM antigen.
Experiment [13] has as its target HEWL-Hel-1012 (hen) (UniProt P00698). Kind of experiment: BLI, mAb on AHC biosensor, 100 nM antigen.
Experiment [14] concerns the target HEWL-Hel-102 (hen) (UniProt P00698). Nature of the experiment: BLI, mAb on AHC biosensor, 100 nM antigen.

UniProt P00698, sequence (P00698 19-147 limits assumed): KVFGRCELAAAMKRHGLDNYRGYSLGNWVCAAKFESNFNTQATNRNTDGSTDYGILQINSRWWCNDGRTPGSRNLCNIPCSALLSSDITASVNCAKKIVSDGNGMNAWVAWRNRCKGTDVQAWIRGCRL

Regarding D1.3 (antibody), the Kd is 11 nM with HEWL-Hel-1024 (hen) [1], 0.58 nM in experiment [2], 27 nM with HEWL-Full12 (hen) [3] and 11 nM with HEWL-Full24 (hen) [4].
In turn, D11.15 (antibody) registered a Kd in experiment [2] of 2.3 nM. In experiment [5], this substance came in with an EC50 (read off the curve) of 0.5 nM.
In the case of HyHEL-5 (antibody), the Kd worked out at 0.018 nM in experiment [2]; 0.36 nM in the experiment with HEWL-Full12 (hen) [6]; 0.14 nM in the experiment with HEWL-Hel-104 (hen) [7]; 0.2 nM with HEWL-Hel-1024 (hen) [8]; 0.17 nM with HEWL-Full24 (hen) [9]; 0.11 nM with HEWL-Hel-1012 (hen) [10]. In the experiment with HEWL-Hel-102 (hen) [11], this substance had a Kd of 0.12 nM.
For the substance HyHEL-10 (antibody), the Kd with HEWL-Hel-104 (hen) [12] turned out to be 0.091 nM; with HEWL-Hel-1024 (hen) [1] it was 0.26 nM; with HEWL-Hel-1012 (hen) [13], 0.055 nM; with HEWL-Hel-102 (hen) [14] it was 0.068 nM.

Usually Kd stands for the equilibrium constant for the complex coming apart. Higher therefore signals a looser complex. The EC50 (read off the curve) is the concentration needed to bring the measured effect to its halfway point. Read a low EC50 (read off the curve) as an effect from little substance.

These data come from US20210139542A1.
